*1 amine or outer side, *2 acyl side, *3 side chain or, on linkers, in order; H or OH if unused. Side-chain parts run from the residue outwards. [ ]: non-standard residue; d: D form. pAMF = para-azidomethylphenylalanine, [N-]=[N+]=NCc1ccc(C[C@H](N[*:1])C(=O)[*:2])cc1
Assays:
[1] = biological target: T1, human IL-2Rβγc (on DERL-7 cells, U2OS IL2RB/IL2RG cells, CD25 knockout Kit225-STAT5 cells, primary CD8+ CTLs) (human, UniProt P14784 27-551; P31785 23-369); assay: cell-based or functional assay
T1 sequence (looked up) 1: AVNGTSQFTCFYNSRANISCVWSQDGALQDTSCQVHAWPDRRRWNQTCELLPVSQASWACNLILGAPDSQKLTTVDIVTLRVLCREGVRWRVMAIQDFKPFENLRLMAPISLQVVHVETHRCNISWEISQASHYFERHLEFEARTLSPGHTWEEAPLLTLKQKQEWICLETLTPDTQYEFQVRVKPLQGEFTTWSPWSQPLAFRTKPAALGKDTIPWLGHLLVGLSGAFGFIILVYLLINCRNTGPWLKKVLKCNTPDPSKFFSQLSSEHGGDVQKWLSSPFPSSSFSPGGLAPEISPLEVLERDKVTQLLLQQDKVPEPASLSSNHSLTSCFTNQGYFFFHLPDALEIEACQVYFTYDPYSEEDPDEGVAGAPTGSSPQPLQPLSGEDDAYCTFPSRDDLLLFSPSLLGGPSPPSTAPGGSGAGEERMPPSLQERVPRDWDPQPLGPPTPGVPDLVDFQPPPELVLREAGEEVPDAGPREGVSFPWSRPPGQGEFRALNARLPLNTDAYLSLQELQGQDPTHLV
T1 sequence (looked up) 2: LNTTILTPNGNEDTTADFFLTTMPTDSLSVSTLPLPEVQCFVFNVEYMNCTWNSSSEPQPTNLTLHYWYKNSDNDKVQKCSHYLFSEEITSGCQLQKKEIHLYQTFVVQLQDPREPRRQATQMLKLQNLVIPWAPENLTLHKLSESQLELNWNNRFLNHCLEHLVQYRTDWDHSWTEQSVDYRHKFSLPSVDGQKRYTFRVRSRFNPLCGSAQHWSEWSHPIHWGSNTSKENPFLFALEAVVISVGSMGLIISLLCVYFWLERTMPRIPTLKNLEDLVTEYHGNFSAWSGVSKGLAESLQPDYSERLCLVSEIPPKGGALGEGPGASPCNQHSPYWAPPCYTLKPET

[2] = biological target: T2, human IL-2Rαβγc (on Kit225-STAT5 reporter cells, NK-92 cells, primary Treg cells) (human, UniProt P01589 22-272; P14784 27-551; P31785 23-369); assay: cell-based or functional assay
T2 sequence (looked up) 1: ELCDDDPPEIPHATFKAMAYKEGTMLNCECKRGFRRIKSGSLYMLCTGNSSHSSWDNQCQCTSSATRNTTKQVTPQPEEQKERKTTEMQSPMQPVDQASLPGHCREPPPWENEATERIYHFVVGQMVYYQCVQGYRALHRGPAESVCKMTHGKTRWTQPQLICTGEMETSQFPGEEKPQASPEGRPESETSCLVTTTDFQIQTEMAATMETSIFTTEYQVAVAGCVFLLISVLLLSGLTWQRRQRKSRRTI
T2 sequence (looked up) 2: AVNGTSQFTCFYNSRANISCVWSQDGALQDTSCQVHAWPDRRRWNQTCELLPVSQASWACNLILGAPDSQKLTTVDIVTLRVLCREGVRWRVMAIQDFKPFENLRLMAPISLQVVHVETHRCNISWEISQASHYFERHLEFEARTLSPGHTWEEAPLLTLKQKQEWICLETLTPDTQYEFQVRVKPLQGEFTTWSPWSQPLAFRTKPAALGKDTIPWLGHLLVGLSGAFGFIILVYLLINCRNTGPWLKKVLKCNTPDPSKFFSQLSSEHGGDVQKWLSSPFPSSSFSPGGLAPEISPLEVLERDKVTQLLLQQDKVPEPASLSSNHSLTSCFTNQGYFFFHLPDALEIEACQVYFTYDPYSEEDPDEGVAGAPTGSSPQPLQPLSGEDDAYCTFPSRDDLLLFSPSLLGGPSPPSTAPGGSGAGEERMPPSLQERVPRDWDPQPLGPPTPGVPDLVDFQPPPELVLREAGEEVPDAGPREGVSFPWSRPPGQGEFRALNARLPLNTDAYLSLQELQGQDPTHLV
T2 sequence (looked up) 3: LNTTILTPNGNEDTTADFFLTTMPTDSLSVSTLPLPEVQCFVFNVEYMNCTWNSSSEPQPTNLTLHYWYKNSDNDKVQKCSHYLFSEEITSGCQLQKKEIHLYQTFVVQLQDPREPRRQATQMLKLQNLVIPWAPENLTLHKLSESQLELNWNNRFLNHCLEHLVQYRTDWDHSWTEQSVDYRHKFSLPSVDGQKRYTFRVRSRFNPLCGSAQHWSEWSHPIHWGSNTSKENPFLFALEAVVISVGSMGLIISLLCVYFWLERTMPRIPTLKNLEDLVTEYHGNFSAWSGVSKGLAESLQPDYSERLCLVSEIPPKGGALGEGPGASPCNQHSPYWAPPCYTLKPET

[3] = biological target: T3, Human IL-2Rβ, His tag (Table 10) (human, UniProt P14784 27-239, limits assumed); assay: SPR (Biacore T200), receptor captured on anti-histidine surface
T3 construct: not shown: polyhistidine tag
T3 sequence (looked up): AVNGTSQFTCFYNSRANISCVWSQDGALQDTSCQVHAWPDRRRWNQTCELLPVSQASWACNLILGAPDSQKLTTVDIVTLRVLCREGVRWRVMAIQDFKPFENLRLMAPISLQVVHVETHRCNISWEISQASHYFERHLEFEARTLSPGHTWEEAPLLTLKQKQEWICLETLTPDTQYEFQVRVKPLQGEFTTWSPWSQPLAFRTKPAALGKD
Experimental: (§1) A Surface Plasmon Resonance (SPR) assay on a Biacore T200 (GE Healthcare) instrument was used to determine the monovalent affinities of pegylated aldesleukin variants against polyhistidine-tagged or Fc-tagged IL-2 Receptors. Biacore T200 Evaluation Software was used to fit each titration series to a 1:1 binding model or steady state affinity. The association (kₒₙ, M⁻¹ s⁻¹) and dissociation (koff, s⁻¹) rate constants were determined for each set of titrations and used to calculate the dissociation constant, KD=koff/kₒₙ, of each sample against each receptor. koff/kₒₙ values are not reported herein.
(§2) To measure the affinity of CON1 and aldesleukin for IL-2R subunits, receptors were captured on either an anti-histidine or anti-hu Fc antibody surface. […] CON1 has a six-fold lower affinity for Human and Cynomolgus/Rhesus IL-2-Rβ than aldesleukin.

[4] = biological target: T4, Cynomolgus/Rhesus IL-2Rβ, His tag (Table 10) (cynomolgus monkey / rhesus monkey, UniProt Q38J85 27-240); assay: as above
T4 sequence: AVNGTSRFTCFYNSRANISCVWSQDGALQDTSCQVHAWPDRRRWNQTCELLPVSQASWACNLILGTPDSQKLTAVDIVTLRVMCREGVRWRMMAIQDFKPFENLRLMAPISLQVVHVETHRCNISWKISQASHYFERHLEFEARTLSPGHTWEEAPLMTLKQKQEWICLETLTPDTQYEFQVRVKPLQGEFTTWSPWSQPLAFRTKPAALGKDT
Experimental: as §1, §2

[5] = biological target: T1, human IL-2Rβγc (on DERL-7 cells, U2OS …); assay: cell-based or functional assay; remark: listed apart in the source
[6] = biological target: T2, human IL-2Rαβγc (on Kit225-STAT5 …); assay: cell-based or functional assay; remark: listed apart in the source

B1: Ald_S4pAMF(PEG1)/R37A/F41K (CON1) (ligand)
chain: PTS[pAMF]([DBCO‑triazole-mPEG 30 kDa])STKKTQLQLEHLLLDLQMILNGINNYKNPKLTAMLTKKFYMPKKATELKHLQCLEEELKPLEEVLNLAQSKNFHLRPRDLISNINVIVLELKGSETTFMCEYADETATIVEFLNRWITFSQSIISTLT
modifications: not fully specified (bridges)
notes: also called Des-A1_IL-2_S4pAMF(PEG1)/R37A/F41K/C124S
B1 was tested, and the “CD25 knockout Kit225-STAT5 reporter, fold lower activity than aldesleukin” value [1] was 24 fold, the “Kit225-STAT5 reporter, fold lower activity than aldesleukin” value [2] was 5110 fold and the “KD/KD (human)” value [3] was 1 ratio. The Kd [3] was 4.4 µM, the “KD/KD (human)” value [4] was 1.2 ratio and the Kd [4] was 5.4 µM. For the same binder, the “pSTAT5 CTLs EC50, donor #1” value [5] was 71.9 nM, the “pSTAT5 CTLs EC50, donor #2” value [5] was 43 nM and the “pSTAT5 CTLs Fold-change from wt, donor #1” value [5] was 25 fold. For the same binder, the “pSTAT5 CTLs Fold-change from wt, donor #2” value [5] was 45 fold, the “pSTAT5 Treg Fold-change from wt, donor #1” value [6] was 3620 fold and the “pSTAT5 Treg Fold-change from wt, donor #2” value [6] was 2230 fold. For the same binder, the “pSTAT5 Treg cells EC50, donor #1” value [6] was 11.8 nM and the “pSTAT5 Treg cells EC50, donor #2” value [6] was 7.29 nM.
